One assay addresses Pre1-FLAG (yeast) (UniProt P22141). Description: co-immunoprecipitation on FLAG-agarose; amount left on the beads after 18 hours at 4° C.
For another assay, the target named is T1, Cim3 (yeast, UniProt Q01939 2-405).
T1 construct: Endogenous protein in yeast extracts, detected by immunoblot as part of the proteasome complex; also called Sug1
T1 sequence (looked up): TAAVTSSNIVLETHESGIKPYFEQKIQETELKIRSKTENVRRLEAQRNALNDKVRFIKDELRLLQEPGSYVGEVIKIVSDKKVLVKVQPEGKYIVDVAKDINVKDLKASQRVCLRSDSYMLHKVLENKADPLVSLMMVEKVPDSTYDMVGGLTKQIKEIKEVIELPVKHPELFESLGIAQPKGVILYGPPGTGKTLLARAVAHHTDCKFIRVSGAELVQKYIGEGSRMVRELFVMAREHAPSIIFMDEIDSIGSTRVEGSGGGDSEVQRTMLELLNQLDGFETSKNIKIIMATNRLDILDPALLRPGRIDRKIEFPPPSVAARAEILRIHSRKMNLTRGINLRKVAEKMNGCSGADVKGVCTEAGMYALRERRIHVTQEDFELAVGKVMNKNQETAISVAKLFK
Description: GST pull-down from yeast extracts, Cim3 and Cim5 immunoblot (FIG. 13A, lane 5). The method, then:
(§1) GST linked proteins were expressed in yeast and purified on glutathione-SEPHAROSE. Proteins retained on the beads were resolved in SDS-polyacrylamide gels, transferred to nitrocellulose, and incubated with antisera specific to proteasome subunits Cim3 and Cim5. The blot was developed by enhanced chemiluminescence ([…]). […] Yeast strains expressing the GST linked proteins as well as Pre1-FLAG, FIG. 13B. The blot was developed with anti-FLAG antiserum (KODAK). The position of molecular weight markers are indicated.
(§2) Extracts were incubated with glutathione-SEPHAROSE, and bound proteins separated in a SDS-polyacrylamide gel, transferred to nitrocellulose and analyzed by immunological methods. […] The interacting proteins were analyzed via western blot analysis with Cim5 antibodies which cross-react with Mss1, a human counterpart of yeast Cim5 (Ghislain, et al. (1993) Nature 366:358-361).
In general terms: Immunoblotting shows a protein as a band on a membrane.

Another assay concerns the target T2, Cim5 (yeast, UniProt P33299 1-467).
T2 construct: Endogenous protein in yeast extracts, detected by immunoblot as part of the proteasome complex
T2 sequence (looked up): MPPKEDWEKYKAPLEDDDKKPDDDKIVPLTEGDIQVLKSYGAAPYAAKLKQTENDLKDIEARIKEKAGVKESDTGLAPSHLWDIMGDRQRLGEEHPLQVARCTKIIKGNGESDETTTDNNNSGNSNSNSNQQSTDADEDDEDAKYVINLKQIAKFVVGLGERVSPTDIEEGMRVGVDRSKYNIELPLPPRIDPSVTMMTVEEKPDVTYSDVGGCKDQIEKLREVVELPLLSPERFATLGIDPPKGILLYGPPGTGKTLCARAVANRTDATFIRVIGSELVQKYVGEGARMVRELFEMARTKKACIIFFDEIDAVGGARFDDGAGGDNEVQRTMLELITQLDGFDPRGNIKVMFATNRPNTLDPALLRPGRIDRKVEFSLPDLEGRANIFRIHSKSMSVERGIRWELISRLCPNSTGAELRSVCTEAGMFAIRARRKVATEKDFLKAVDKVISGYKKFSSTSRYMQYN
The description is as above. As to the method:
as §1, §2

Sequence of Pre1-FLAG (yeast) (P22141 whole entry): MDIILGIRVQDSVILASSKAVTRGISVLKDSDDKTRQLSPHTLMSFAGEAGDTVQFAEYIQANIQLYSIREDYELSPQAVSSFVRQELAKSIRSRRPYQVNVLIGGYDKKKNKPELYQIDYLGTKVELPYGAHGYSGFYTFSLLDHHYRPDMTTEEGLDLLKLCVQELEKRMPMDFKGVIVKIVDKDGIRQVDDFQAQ

As for “native Rad23 (from UniProt P32628 1-398)”, the percent of cellular Rad23 precipitated with Pre1-FLAG in the assay with Pre1-FLAG (yeast) is 5%.

B1: GST-UbL^HRA (other)
chain: MAVTITLKTLQQQTFKIRMEPDETVKVLKEKIEAEKGRDAFPVAGQKLIYAGKILSDDVPIRDYRIDEKNFVVVMVTKTKA
notes: The UbL is linked to the C-terminus of GST; also called ubiquitin-like domain of HHR23A linked to GST; not shown: glutathione S-transferase (GST)
As for B1, the binding result with Cim3 and with Cim5 was “no binding” each time.

Source of the values: patent US20060281118A1 (UNIVERSITY OF MEDICINE AND DENTISTRY OF NEW JERSEY, published 2006).
